The text below walks through data of paper PMC3912051.

For assay [1], the target named is TRIM28 (endogenous human TRIM28 protein) (human (endogenous in HeLa)) (UniProt Q13263).
Assay [2] concerns the target ZNF10 KRAB-AB KRAB-AB (Homo sapiens) (UniProt P21506). As to conditions: cited from earlier work.

TRIM28, sequence (Q13263 2-835): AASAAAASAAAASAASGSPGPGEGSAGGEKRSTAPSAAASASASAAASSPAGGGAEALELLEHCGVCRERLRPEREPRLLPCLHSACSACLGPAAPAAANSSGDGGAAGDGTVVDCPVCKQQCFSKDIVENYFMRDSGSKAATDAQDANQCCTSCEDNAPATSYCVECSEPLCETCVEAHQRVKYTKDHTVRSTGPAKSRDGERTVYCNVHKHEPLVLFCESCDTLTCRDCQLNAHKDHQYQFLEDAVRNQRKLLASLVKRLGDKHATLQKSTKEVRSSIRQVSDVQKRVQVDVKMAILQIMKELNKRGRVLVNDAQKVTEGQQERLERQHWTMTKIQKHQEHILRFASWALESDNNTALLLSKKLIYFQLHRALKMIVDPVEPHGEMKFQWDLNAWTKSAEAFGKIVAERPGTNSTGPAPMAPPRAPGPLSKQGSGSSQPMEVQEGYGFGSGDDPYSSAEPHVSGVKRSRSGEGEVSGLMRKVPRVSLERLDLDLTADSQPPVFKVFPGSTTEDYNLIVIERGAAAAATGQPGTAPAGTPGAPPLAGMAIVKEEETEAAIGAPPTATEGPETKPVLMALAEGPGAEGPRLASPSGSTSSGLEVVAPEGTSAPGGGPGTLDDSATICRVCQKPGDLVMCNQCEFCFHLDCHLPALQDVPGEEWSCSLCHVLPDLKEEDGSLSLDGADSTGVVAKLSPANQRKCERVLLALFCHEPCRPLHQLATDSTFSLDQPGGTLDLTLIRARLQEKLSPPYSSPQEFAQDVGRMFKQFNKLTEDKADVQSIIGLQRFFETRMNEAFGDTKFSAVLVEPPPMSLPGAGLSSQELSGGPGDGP
TRIM28 (endogenous human TRIM28 protein) (human (endogenous in HeLa)), sequence (Q13263 whole entry): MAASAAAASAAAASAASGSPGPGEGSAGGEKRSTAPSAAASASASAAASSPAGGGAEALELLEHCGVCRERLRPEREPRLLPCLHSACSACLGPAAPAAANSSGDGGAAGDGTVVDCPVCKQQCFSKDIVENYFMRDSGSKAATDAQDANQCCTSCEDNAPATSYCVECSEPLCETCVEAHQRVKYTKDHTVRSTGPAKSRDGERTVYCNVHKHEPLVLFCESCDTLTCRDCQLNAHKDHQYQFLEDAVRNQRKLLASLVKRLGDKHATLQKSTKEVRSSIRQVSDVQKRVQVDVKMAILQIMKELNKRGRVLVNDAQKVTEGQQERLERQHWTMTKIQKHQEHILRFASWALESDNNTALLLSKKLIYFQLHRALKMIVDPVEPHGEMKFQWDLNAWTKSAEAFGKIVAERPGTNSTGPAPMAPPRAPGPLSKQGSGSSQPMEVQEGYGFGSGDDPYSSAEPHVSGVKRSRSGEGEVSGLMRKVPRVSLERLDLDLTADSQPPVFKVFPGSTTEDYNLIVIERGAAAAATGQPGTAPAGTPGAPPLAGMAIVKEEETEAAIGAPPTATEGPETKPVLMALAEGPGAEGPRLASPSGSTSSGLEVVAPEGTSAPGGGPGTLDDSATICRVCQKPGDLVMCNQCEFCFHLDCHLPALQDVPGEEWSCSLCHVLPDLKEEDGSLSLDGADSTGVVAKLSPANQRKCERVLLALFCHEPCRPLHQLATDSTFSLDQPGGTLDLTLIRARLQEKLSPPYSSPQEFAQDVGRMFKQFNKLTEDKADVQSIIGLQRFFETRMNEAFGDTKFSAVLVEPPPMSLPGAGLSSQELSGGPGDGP
ZNF10 KRAB-AB KRAB-AB (Homo sapiens), sequence (P21506 14-85): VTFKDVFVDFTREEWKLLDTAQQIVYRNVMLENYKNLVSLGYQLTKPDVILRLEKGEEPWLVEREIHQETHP

As for “GST-XFIN-KRAB-AB (corrected KRAB-AB domain of Xenopus laevis XFIN fused to glutathione S-transferase) (domain or fragment)”, in assay [1], the fold repression of a Gal4-site luciferase reporter by Gal4-XFIN-KRAB-AB in EPC fish cells with co-transfected human TRIM28 (negligible without it) came to 2 fold.
Consider TRIM28 (from UniProt Q13263), for which the Kd – broadly, the concentration at which binding is half-saturated – in assay [2] was 142 nM.
